One data set deals with cc-KDM4C. Briefly: MALDI-TOF-MS demethylation, truncated KDM4C. The data set is classed as biochemical, human. As for the experimental part:
(§1) The enzyme kinetics were measured using a Formaldehyde DeHydrogenase Assay (FDH-Assay) and the demethylation of substrates was confirmed when possible by MALDI-TOF-MS, see File S1 for details. The test solution contained 50 mM HEPES (pH 7.5), 50 mM NaCl, 50 µM FeSO4, 500 µM α-KG, 500 µM ascorbate, 2 mM NAD, approximately 0.05 unit of FDH and e.g. 4.88 µM KDM4C (enzyme concentration varied between batches). The reference solution was comprised of the same except substrate. The assay was initiated by adding various concentrations of H3 peptide substrates e.g. H3(1–24)K9me3 (10–1000 µM) and the increase in NADH fluorescence was measured over 15–30 minutes in 30 second intervals. Data analysis and kinetic values were obtained using programs Excel and GraphPad Prism® 5.0. For details, see File S1.
(§2) The reaction mixture was diluted 1: 9 with a saturated solution of α-cyano-4-hydroxycinnamic acid (Aldrich) in a mixture of 65 % acetonitrile and 35 % MilliQ water containing 0.1 % TFA. 1 µl of the sample was spotted onto the target and air dried. The MALDI-TOF MS was carried out on an Ultraflex TOF/TOF (Bruker) operated in positive ion mode with an Ion source voltage of 25 kV, a lens voltage of 7.5 kV and a reflector voltage of 26.3 kV. The system was run in deflection mode with a mass suppression of 500 Da. […]

The target in data set [1] is T1, human cc-KDM4A (Homo sapiens, UniProt O75164).
T1 construct: Truncated constructs of KDM4A and KDM4C containing only the catalytic cores (cc-KDM4A/cc-KDM4C); made in house
T1 sequence (O75164 1-350 limits assumed): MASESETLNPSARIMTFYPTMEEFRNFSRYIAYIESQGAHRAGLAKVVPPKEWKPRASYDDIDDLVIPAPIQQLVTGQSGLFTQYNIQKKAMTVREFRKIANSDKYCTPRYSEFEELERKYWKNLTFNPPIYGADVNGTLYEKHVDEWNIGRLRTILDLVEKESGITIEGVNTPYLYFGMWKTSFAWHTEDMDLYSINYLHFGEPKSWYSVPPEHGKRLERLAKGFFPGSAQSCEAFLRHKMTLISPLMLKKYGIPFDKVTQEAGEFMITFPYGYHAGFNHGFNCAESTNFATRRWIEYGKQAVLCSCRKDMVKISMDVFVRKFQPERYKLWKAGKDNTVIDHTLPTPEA
The data set can be described thus: FDH-assay enzyme kinetics of H3 peptide demethylation, truncated KDM4A. The data set is classed as biochemical. Also noted: key to K m / k cat / k cat /K m: 0 means no demethylation could be detected. The following applies: cc-KDM4A; for K m / k cat / k cat /K m / demethylation / catalytic activity (in words): FDH-assay; for K m: 50 mM HEPES (pH 7.5), 50 mM NaCl, 50 µM FeSO4, 500 µM α-KG, 500 µM ascorbate, 2 mM NAD, substrate 10–1000 µM, NADH fluorescence 15–30 minutes; for K m / k cat / k cat /K m: triplicate; for k cat / k cat /K m: pH 7.5; for k cat: NADH fluorescence; for demethylation / catalytic activity (in words): compared to H3(1–24)K9me3 where a change is stated. On the procedure:
as §1
(§3) The standard deviations for k cat/K m were calculated using the statistic law of propagation of errors. Standard errors for Michaelis-Menten Kinetics were automatically given in GraphPad Prism®, with a 95% confidence interval. All enzyme kinetic curves were done in triplicate unless otherwise stated.
(§4) Test for activity of enzyme using the fluorescence FDH assay, determination of Vmax and Km of enzymes with substrate, expression and purification of cc-KDM4A and cc-KDM4C software and parameters for the FDH coupled assay, see Lohse et al.^21
(§5) The standard deviations for kcat/ Km were calculated using the statistic law of propagation of errors. Standard errors for Michaelis-Menten Kinetics were automatically given in GraphPad Prism®, with a 95 % confidence interval. All enzyme kinetic curves were done in triplicate unless otherwise stated.

The target in data set [2] is T2, human cc-KDM4C (Homo sapiens, UniProt Q9H3R0).
T2 construct: Truncated constructs of KDM4A and KDM4C containing only the catalytic cores (cc-KDM4A/cc-KDM4C); made in house
T2 sequence (Q9H3R0 1-349 limits assumed): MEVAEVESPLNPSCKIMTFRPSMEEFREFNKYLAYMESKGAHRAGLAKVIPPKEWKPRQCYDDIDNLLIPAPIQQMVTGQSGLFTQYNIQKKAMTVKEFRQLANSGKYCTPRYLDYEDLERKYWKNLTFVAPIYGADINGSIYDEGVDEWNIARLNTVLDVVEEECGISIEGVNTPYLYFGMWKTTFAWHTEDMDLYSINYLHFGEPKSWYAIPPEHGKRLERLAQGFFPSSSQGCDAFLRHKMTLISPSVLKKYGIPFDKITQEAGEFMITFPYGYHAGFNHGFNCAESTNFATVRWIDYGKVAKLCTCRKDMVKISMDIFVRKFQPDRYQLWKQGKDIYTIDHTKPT
The data set can be described thus: FDH-assay enzyme kinetics of H3 peptide demethylation, truncated KDM4C. The data set is classed as biochemical. The note with it: for K m / demethylation / catalytic activity (in words) / k cat / k cat /K m: FDH-assay; for K m: 50 mM HEPES (pH 7.5), 50 mM NaCl, 50 µM FeSO4, 500 µM α-KG, 500 µM ascorbate, 2 mM NAD, substrate 10–1000 µM, e.g. 4.88 µM KDM4C, NADH fluorescence 15–30 minutes; for K m / k cat: triplicate; for demethylation / catalytic activity (in words): compared to H3(1–24)K9me3 where a change is stated; for k cat: pH 7.5, NADH fluorescence; for k cat /K m: pH 7.5, triplicate. On the procedure: as §1, §3, §4, §5

In the next data set the test system is cc-KDM4A. The data set can be described thus: MALDI-TOF-MS demethylation, truncated KDM4A. The data set is classed as biochemical, human. As for the experimental part:
as §1, §2

For data set [3], the target named is T2, human cc-KDM4C. The data set can be described thus: competition experiment H3(1–24)K9me3-T11(ph) with H3(1–24)K9me3, truncated KDM4C. The data set is classed as biochemical. On the procedure: (§6) To investigate if H3(1–24)K9me3-T11(ph) could bind to the enzyme and act as an inhibitor, a competition experiment with H3(1–24)K9me3 was carried out.
as §1

In data set [4] the target is T1, human cc-KDM4A. The data set can be described thus: competition experiment H3(1–24)K9me3-T11(ph) with H3(1–24)K9me3, truncated KDM4A. The data set is classed as biochemical. As for the experimental part: as §6, §1
Where [5] appears, read: SD by propagation of errors, unit: min^−1 * µM^−1 * 10^3.
Setting [6] is: SD by propagation of errors, unit: (min^−1 * µM^−1) * 10^3.
The mark [7] stands for this setting: cc-KDM4C, H3(1–24)K9me3T11(ph) then H3(1–24)K9me3*.
[8] abbreviates: cc-KDM4A, H3(1–24)K9me3T11(ph) then H3(1–24)K9me3*.

Results on 4 substances are retold here after paper PMC3699631, “Posttranslational Modifications of the Histone 3 Tail and Their Impact on the Activity of Histone Lysine Demethylases In Vitro” (PLoS ONE, 2013).

On to “H3(1–24)K4me3K9me3: bis-tri-methylated substrate, trimethylated K4 in combination with H3K9me3”, for which the “demethylation by MALDI-TOF-MS (in words)” value with cc-KDM4C was “PTM product between mark K4me3 and mark K9me3”; with cc-KDM4A it was “PTM product between mark K4me3 and mark K9me3”. In addition, the figures for the K m in the data set with human cc-KDM4A [1] and with human cc-KDM4C [2] were 82±11 and 70±13, respectively. Further, the k cat is 1.1±0.04 with human cc-KDM4A [1] and 1.2±0.1 in the data set with human cc-KDM4C [2]. Further, the “k cat /K m” value with human cc-KDM4A [1] (setting [5]) is recorded as 13.4±1.9; in the data set with human cc-KDM4A [1] (figures and text) it was 13±2 min^-1 * μM^-1 * 10^3; with human cc-KDM4C [2] (setting [6]) it was 17±2; with human cc-KDM4C [2] (figures), 17 ± 2 min^-1 * μM^-1 * 10^3. The “fold increase in k cat/K m” value in the data set with human cc-KDM4A [1] (compared to H3(1–24)K9me3) and in the data set with human cc-KDM4C [2] (compared to H3(1–24)K9me3) was 2 fold in each case. Further, the “demethylation / catalytic activity (in words)” value with human cc-KDM4C [2] is reported as “an increase of the enzymatic catalytic efficiency”.
In the case of “H3(1–24)K9me2: truncated histone tail, 24 first amino acids from the N-terminus of H3, dimethylated lysine 9”, in the data set with human cc-KDM4A [1], the K m entry is “Below detection”, the k cat result is reported as “Below detection” and the “demethylation / catalytic activity (in words)” value is on record as “could not be detected”. The “k cat /K m” value with human cc-KDM4A [1] (setting [5]) was “Below detection”. Further, in the data set with human cc-KDM4C [2], the K m is given as 79±10 and the k cat came to 0.1±0.01. Also, the “k cat /K m” value in the data set with human cc-KDM4C [2] (setting [6]) stood at 1.3±0.2.
Consider “H3(1–24)K9me3: truncated histone tail, 24 first amino acids from the N-terminus of H3, trimethylated lysine 9; control peptide”, for which the K m with human cc-KDM4C [3] (setting [7]) is 43±22; with human cc-KDM4A [1], 131±16; with human cc-KDM4C [2], 55±11; with human cc-KDM4A [4] (setting [8]) it was 132±23. Further, the k cat with human cc-KDM4C [3] (setting [7]) was found to be 0.3±0.05; in the data set with human cc-KDM4A [1], 1.1±0.04; with human cc-KDM4C [2], 0.5±0.04; with human cc-KDM4A [4] (setting [8]), 1.4±0.08. Besides, the “k cat /K m” value in the data set with human cc-KDM4A [1] (setting [5]) amounted to 8.4±1.1; with human cc-KDM4A [1] (figures and text) it was 8.4±1.1 min^-1 * μM^-1 * 10^3; with human cc-KDM4C [2] (setting [6]), 9±1; in the data set with human cc-KDM4C [2] (figures), 9 ± 1 min^-1 * μM^-1 * 10^3; with human cc-KDM4A [4] (cc-KDM4A, H3(1–24)K9me3T11(ph) then H3(1–24)K9me3*, unit: (min^−1 * µM^−1) * 10^3), 10.6±1.9.
As for “H3(1–24)K9me3T11(ph): H3(1–24)K9me3 with phosphorylation of threonine 11”, the “competition / inhibition (in words)” value is listed as “does not act as an inhibitor” with human cc-KDM4C [3] (competition with H3(1–24)K9me3, results not shown, enzyme not named, cc-KDM4C in Table 1) and “does not act as an inhibitor” in the data set with human cc-KDM4A [4] (competition with H3(1–24)K9me3, results not shown, enzyme not named, cc-KDM4A in Table 1). Further, the “demethylation by MALDI-TOF-MS (in words)” value with cc-KDM4C and in the data set with cc-KDM4A was “no detectable turnover” throughout. The K m with human cc-KDM4A [1] is 0. The k cat with human cc-KDM4A [1] worked out at 0. In addition, the “k cat /K m” value with human cc-KDM4A [1] (setting [5]) stood at 0. The “demethylation / catalytic activity (in words)” value with human cc-KDM4A [1] and with human cc-KDM4C [2] was “no detectable turnover” in each case.
